Consider one molecule from PMC11798926.

The test addresses myc-tagged SynDIG4 (wild type), Q6MG82. As to the kind of experiment: co-immunoprecipitation (IP: HA, blot: myc), quantified. The conditions noted are these: chain shown with the change; HEK293T cells; fourth bar chart of panel D (µ2 FLD vs µ2 ALS); parent: est. 100; read off a plot.

myc-tagged SynDIG4 (wild type), Q6MG82, sequence (Q6MG82 whole entry): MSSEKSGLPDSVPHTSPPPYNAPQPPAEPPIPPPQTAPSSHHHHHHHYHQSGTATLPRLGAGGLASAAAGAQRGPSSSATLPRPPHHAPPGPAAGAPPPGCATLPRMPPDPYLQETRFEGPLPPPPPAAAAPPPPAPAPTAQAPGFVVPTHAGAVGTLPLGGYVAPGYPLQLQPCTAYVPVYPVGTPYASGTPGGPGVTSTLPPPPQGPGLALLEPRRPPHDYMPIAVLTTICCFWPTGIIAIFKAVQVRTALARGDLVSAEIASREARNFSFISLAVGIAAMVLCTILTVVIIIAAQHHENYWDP

B1: HA-tagged μ2 AP subunit, Q96CW1 FLD→ALS (protein)
chain: MIGGLFIYNHKGEVLISRVYRDDIGRNAVDAFRVNVIHARQQVRSPVTNIARTSFFHVKRSNIWLAAVTKQNVNAAMVFEFLYKMCDVMAAYFGKISEENIKNNFVLIYELLDEILDFGYPQNSETGALKTFITQQGIKSQHQTKEEQSQITSQVTGQIGWRREGIKYRRNELALSVLESVNLLMSPQGQVLSAHVSGRVVMKSYLSGMPECKFGMNDKIVIEKQGKGTADETSKSGKQSIAIDDCTFHQCVRLSKFDSERSISFIPPDGEFELMRYRTTKDIILPFRVIPLVREVGRTKLEVKVVIKSNFKPSLLAQKIEVRIPTPLNTSGVQVICMKGKAKYKASENAIVWKIKRMAGMKESQISAEIELLPTNDKKKWARPPISMNFEVPFAPSGLKVRYLKVFEPKLNYSDHDVIKWVRYIGRSGIYETRC
Take B1: the percent of parent stood at 50 % µ2.
